T1: Flag-tagged SHARPIN (human, UniProt Q9H0F6 1-387)
T1 construct: also called Flag-SHARPIN; not shown: FLAG tag
T1 sequence (looked up): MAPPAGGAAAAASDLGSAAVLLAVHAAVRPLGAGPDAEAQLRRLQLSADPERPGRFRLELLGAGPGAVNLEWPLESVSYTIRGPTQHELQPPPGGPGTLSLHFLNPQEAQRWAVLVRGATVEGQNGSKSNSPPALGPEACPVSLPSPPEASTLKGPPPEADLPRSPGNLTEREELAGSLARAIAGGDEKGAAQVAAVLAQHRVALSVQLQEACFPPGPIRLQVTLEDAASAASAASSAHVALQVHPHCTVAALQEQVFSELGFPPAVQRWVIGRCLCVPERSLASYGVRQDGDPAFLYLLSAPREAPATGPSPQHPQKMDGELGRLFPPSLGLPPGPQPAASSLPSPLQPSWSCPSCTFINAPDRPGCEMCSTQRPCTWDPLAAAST

T2: Gamma-interferon-inducible protein 16 (IFI16) (human, UniProt Q16666 1-785)
T2 construct: Endogenous protein in WM115 / A375
T2 sequence: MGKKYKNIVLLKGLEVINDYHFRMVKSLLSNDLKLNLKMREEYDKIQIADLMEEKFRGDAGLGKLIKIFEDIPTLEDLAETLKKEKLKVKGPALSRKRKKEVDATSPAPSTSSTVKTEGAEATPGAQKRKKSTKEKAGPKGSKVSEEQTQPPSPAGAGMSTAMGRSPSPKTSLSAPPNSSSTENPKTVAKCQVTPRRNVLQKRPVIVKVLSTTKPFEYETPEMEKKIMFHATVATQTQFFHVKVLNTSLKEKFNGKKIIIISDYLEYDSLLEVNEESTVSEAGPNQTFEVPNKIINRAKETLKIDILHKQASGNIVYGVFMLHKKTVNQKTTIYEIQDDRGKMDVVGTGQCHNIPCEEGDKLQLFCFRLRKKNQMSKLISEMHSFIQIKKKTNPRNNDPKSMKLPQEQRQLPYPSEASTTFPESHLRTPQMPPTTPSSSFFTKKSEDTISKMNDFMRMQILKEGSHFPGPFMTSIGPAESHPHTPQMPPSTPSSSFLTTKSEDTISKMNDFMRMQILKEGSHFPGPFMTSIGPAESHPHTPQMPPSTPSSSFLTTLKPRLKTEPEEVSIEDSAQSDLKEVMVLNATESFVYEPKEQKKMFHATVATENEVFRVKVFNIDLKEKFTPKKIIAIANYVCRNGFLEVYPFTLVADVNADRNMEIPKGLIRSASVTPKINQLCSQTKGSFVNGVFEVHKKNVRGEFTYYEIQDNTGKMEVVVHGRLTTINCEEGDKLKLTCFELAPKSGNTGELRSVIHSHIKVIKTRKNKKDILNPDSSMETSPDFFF

T3: Interferon-activable protein 204 (Mus musculus) (IFI204) (Mus musculus, UniProt P0DOV2 1-619)
T3 construct: also called IF204
T3 sequence: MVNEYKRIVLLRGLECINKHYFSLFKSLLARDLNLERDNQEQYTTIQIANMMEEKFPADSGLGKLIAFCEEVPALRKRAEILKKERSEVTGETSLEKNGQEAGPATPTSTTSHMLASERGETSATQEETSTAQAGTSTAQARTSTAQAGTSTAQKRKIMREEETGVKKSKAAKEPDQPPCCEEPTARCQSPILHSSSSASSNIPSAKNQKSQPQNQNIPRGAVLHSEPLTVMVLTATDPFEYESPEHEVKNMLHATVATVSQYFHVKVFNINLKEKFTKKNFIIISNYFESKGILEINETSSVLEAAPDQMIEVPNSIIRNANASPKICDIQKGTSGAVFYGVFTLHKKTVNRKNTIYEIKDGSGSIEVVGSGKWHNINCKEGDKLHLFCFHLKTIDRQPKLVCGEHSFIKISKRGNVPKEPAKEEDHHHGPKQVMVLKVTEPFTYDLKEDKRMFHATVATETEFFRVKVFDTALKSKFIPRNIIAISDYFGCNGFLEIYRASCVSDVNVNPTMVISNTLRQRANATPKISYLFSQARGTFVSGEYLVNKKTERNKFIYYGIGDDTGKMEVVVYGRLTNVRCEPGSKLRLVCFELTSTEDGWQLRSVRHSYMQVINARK


How the values were obtained:
Flag-tagged SHARPIN = target: T1, Flag-tagged SHARPIN; assay: Flag IP of Flag-SHARPIN from WM115 lysate, on-bead tryptic digestion, LC/MS-MS
Description: To identify SHARPIN-interacting proteins, WM115 cells were transfected with Flag-tagged SHARPIN or control empty plasmid. Cell lysates were prepared using 1% Triton X-100 buffer [50 mM Tris-HCl, pH7.4, 1% (v/v) Triton X-100, 150 mM NaCl, 1 mM EDTA, and protease and phosphatase inhibitor cocktails (Thermo Fisher Scientific)]. Lysates were pre-cleared with protein A/G beads (Santa Cruz Biotechnology) for 1 h at 4° C. followed by immunoprecipitation using FLAG-M2-agarose beads (Sigma-Aldrich) overnight at 4° C. Beads were then washed with lysis buffer and TBS containing lx protease inhibitor cocktail before being subjected to on-bead tryptic digestion followed by mass spectrometry. In Vitro Methylation Assay.

[1] = target: T2, Gamma-interferon-inducible protein 16 …; assay: co-immunoprecipitation and immunoblot, human melanoma cell lysates (FIGS. 8C, 10C)
[2] = target: T3, Interferon-activable protein 204 (Mus …); assay: co-immunoprecipitation and immunoblot, B16 cell lysates (FIG. 8D)
Description: FIG. 8D depicts B16 cells were treated with vehicle (DMSO) or PRMT5 inhibitor (PRMT5i; EPZ015666, 10 μM) for 48. IP followed by IB of B16 cells lysates (1.5 mg) was performed with the indicated antibodies. SYM10 indicates anti-symmetric dimethyl arginine antibody (Millipore). FIGS. 8E and 8F depict A375 (FIG. 8E) or B16 (FIG. 8F) cells treated with vehicle or a PRMT5 inhibitor (EPZ015666) as above before lysates [A375 (1.0 mg), B16 (2.5 mg)] were prepared and subjected to IP followed by immunoblotting with indicated antibodies. FIG. 8G depicts B16 cells stably expressing indicated constructs were treated 24 h with DMSO or PRMT5i before lysates were IP'ed with V5 antibody and immunoblotted with indicated antibodies.
Immunoblotting was performed using standard protocols. Melanoma cells were lysed by incubation in RIPA buffer [50 mM Tris-HC1, pH7.4, 1% (v/v) NP40, 0.1% (w/v) sodium deoxycholate, 0.1% (w/v) sodium dodecyl sulfate, 150 mM NaCl, 1mM EDTA, and protease and phosphatase inhibitor cocktails (Thermo Fisher Scientific)] and freeze-thawed 3 times. For immunoprecipitation HEK293T cells were lysed in 1% Triton X-100 buffer [50 mM Tris-HC1, pH7.4, 1% (v/v) Triton X-100, 150 mM NaCl, 1 mM EDTA, and protease and phosphatase inhibitor cocktails (Thermo Fisher Scientific)] and freeze-thawed 3 times. […]

Binder	binding result (Flag-tagged SHARPIN)	other results
MYL128 (other, human, UniProt O14950 1-172, looked up, endogenous protein co-purified from WM115 lysate; also called MYL12B) MSSKKAKTKTTKKRPQRATSNVFAMFDQSQIQEFKEAFNMIDQNRDGFIDKEDLHDMLASLGKNPTDAYLDAMMNEAPGPINFTMFLTMFGEKLNGTDPEDVIRNAFACFDEEATGTIQEDYLRELLTTMGDRFTDEEVDELYREAPIDKKGNFNYIEFTRILKHGAKDKDD	binds	–
MYL12A (other, human, UniProt P19105 1-171, looked up, endogenous protein co-purified from WM115 lysate) MSSKRTKTKTKKRPQRATSNVFAMFDQSQIQEFKEAFNMIDQNRDGFIDKEDLHDMLASLGKNPTDEYLDAMMNEAPGPINFTMFLTMFGEKLNGTDPEDVIRNAFACFDEEATGTIQEDYLRELLTTMGDRFTDEEVDELYREAPIDKKGNFNYIEFTRILKHGAKDKDD	binds	–
SLC25A4 (other, human, UniProt P12235 2-298, looked up, endogenous protein co-purified from WM115 lysate) GDHAWSFLKDFLAGGVAAAVSKTAVAPIERVKLLLQVQHASKQISAEKQYKGIIDCVVRIPKEQGFLSFWRGNLANVIRYFPTQALNFAFKDKYKQLFLGGVDRHKQFWRYFAGNLASGGAAGATSLCFVYPLDFARTRLAADVGKGAAQREFHGLGDCIIKIFKSDGLRGLYQGFNVSVQGIIIYRAAYFGVYDTAKGMLPDPKNVHIFVSWMIAQSVTAVAGLVSYPFDTVRRRMMMQSGRKGADIMYTGTVDCWRKIAKDEGAKAFFKGAWSNVLRGMGGAFVLVLYDEIKKYV	binds	–
SHARPIN (endogenous, human melanoma cells WM115 / A375) (other, UniProt Q9H0F6 1-387, looked up) MAPPAGGAAAAASDLGSAAVLLAVHAAVRPLGAGPDAEAQLRRLQLSADPERPGRFRLELLGAGPGAVNLEWPLESVSYTIRGPTQHELQPPPGGPGTLSLHFLNPQEAQRWAVLVRGATVEGQNGSKSNSPPALGPEACPVSLPSPPEASTLKGPPPEADLPRSPGNLTEREELAGSLARAIAGGDEKGAAQVAAVLAQHRVALSVQLQEACFPPGPIRLQVTLEDAASAASAASSAHVALQVHPHCTVAALQEQVFSELGFPPAVQRWVIGRCLCVPERSLASYGVRQDGDPAFLYLLSAPREAPATGPSPQHPQKMDGELGRLFPPSLGLPPGPQPAASSLPSPLQPSWSCPSCTFINAPDRPGCEMCSTQRPCTWDPLAAAST	–	binding result [1]: binds
GSTP1 (other, human, UniProt P09211 2-210, looked up, endogenous protein co-purified from WM115 lysate) PPYTVVYFPVRGRCAALRMLLADQGQSWKEEVVTVETWQEGSLKASCLYGQLPKFQDGDLTLYQSNTILRHLGRTLGLYGKDQQEAALVDMVNDGVEDLRCKYISLIYTNYEAGKDDYVKALPGQLKPFETLLSQNQGGKTFIVGDQISFADYNLLDLLLIHEVLAPGCLDAFPLLSAYVGRLSARPKLKAFLASPEYVNLPINGNGKQ	binds	–
SHARPIN (endogenous, murine B16 melanoma cells) (other, mouse, UniProt Q91WA6 1-380, looked up) MSPPAGGAAVAADPASPVVLLAVHAAVRPLGAGQDAEAQPRKLQLIADPERPGRFRLGLLGTEPGAVSLEWPLEAICYTVRGPNQHELQPPPGGPGTFSVHFLDPEEAQQWAALVRDATAEGQNGSGSPAPAPAPAMCPISPPCSSMAQIPKATQPEVDLPQSSGNFKKEELATRLSQAIAGGDEKAAAQVAAVLAQHHVALNVQLMEAWFPPGPIRLQVTVEDATSVLSSSSSAHVSLKIHPHCSIAALQDQVFSEFGFPPAVQRWVIGRCLCMPERSLASYGVSQDGDPAFLYLLSAPREVSGQSLQNSKMDRKLGLFPQSLGLPHDLQPSSSSLPSPSQPGWSCPSCTFINASNRPGCEMCSTQRPCAWDPLAAAST	–	binding result [2]: binds

Reference: patent US20230301998A1 (SANFORD BURNHAM PREBYS MEDICAL DISCOVERY INSTITUTE, published 2023)
